Tests used:
[1] = target: murine p55 receptor (on mouse L-M cells) (murine) (UniProt P25118); assay: cell-based or functional assay
[2] = target: TNF receptors (on L-M mouse fibroblasts); assay: cell-based or functional assay

Chain of UniProt P25118 (P25118 30-454): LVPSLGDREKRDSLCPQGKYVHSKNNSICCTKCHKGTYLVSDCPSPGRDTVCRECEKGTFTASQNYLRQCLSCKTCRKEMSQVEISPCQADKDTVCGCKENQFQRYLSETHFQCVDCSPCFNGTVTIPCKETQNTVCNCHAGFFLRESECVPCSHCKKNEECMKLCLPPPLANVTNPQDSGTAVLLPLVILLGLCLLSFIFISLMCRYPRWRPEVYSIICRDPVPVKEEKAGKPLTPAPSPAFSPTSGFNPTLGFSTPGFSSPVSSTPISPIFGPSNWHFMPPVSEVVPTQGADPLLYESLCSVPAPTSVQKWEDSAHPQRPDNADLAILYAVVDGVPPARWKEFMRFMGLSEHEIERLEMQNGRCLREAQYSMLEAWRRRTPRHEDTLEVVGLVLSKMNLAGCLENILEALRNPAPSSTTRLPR

| Substance | in vitro cytolytic activity on mouse L-M cells [1] [units/mg] | in vitro cytotoxic activity, standard cytolytic assay with L-M cells [2] [units/mg] |
| --- | --- | --- |
| human NGR-TNF (CNGRCG-TNF1-157), non-refolded (from UniProt P01375 1-233) | 6.11e+07 |  |
| human NGR-TNF (CNGRCG-TNF1-157), refolded (from UniProt P01375 1-233) | 5.09e+07 |  |
| murine NGR-TNF (Cys-Asn-Gly-Arg-Cys-Gly-TNF1-156) (from UniProt P06804 80-235) |  | 1.8e+08 |
